T1: full-length human LEPR on IMR-32/STAT3-Luc/hLEPR cells (human, UniProt P48357 22-1165)
T1 sequence (looked up): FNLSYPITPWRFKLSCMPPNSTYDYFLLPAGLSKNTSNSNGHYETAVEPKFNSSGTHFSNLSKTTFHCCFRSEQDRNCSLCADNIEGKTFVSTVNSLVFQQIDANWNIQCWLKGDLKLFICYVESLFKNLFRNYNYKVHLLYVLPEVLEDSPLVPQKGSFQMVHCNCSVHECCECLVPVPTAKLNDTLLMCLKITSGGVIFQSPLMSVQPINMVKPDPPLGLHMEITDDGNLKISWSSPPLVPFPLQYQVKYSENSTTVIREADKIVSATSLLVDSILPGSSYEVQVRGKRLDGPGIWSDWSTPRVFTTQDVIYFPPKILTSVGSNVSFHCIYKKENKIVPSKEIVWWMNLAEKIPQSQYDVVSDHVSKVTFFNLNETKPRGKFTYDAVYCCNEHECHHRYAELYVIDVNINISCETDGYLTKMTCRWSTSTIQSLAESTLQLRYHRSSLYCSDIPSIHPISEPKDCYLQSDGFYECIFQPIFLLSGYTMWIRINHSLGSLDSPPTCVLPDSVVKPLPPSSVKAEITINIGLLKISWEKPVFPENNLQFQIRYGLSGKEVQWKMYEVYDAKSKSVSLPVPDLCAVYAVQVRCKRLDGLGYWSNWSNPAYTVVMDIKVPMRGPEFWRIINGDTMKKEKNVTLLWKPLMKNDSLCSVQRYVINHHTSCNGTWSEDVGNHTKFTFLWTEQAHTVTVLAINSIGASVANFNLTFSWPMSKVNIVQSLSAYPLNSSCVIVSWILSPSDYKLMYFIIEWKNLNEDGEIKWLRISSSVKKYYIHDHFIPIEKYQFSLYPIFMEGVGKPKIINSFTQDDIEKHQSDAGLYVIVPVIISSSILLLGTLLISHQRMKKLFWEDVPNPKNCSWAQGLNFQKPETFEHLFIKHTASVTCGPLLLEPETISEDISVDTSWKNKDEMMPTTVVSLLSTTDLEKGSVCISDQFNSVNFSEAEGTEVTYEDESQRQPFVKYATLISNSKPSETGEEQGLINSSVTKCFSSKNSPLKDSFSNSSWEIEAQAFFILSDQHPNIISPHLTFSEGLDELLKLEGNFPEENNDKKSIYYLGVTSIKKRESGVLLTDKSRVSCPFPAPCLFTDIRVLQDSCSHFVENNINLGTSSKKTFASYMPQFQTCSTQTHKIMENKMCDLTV

T2: human LEPR CRH1 (D1)-MMH (human, UniProt P48357 22-229, limits assumed)
T2 construct: domain: CRH1 (D1); Transiently expressed, captured from supernatant on anti-myc beads
T2 sequence (looked up): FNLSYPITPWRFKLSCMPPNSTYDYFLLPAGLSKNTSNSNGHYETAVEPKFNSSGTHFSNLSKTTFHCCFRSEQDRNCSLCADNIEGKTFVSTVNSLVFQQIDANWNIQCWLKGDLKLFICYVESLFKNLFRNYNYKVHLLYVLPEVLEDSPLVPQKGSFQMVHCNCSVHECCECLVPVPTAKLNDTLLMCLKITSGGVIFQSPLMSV

T3: human LEPR CRH1-Ig (D2,D3)-MMH (human, UniProt P48357 230-427, limits assumed)
T3 construct: domain: CRH1-Ig (D2,D3); Transiently expressed, captured from supernatant on anti-myc beads
T3 sequence (looked up): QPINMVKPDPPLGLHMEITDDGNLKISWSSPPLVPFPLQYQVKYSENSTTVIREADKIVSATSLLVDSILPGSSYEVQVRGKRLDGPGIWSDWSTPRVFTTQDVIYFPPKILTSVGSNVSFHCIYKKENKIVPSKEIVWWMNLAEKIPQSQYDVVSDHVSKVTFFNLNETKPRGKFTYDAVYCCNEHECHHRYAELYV

T4: human LEPR Ig (D3)-MMH (human, UniProt P48357 340-427, limits assumed)
T4 construct: domain: Ig (D3); Transiently expressed, captured from supernatant on anti-myc beads
T4 sequence (looked up): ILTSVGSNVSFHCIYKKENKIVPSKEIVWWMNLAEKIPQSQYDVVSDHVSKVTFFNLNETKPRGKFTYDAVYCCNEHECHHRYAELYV

T5: human LEPR FNIII-MMH (human, UniProt P48357 636-839, limits assumed)
T5 construct: domain: FNIII; Transiently expressed, captured from supernatant on anti-myc beads
T5 sequence (looked up): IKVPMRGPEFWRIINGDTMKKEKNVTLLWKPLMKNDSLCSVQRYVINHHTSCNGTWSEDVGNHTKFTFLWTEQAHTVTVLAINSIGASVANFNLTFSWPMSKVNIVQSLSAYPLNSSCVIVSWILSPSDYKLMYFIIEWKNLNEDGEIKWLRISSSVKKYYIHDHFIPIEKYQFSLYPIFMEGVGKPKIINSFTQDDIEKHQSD

B1: H4H18464P2 (antibody, human IgG4, V domains shown)
VH: QVQLVQSGPEVKKPGASVKVSCKGSGYTFSWYGISWIRQAPGHGLEWMGWISASSGNTRFAQKVQGRLTMTTDTSTSTAYMELRSLRSDDTAVYYCARTGTRPFDYWGQGTLVTVSS
VL: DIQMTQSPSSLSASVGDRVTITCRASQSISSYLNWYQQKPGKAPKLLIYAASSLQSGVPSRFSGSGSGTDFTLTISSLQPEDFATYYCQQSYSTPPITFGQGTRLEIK
notes: H4H prefix: human IgG4 Fc
B2: H4H18440P2 (antibody, human IgG4, V domains shown)
VH: QVQLVESGGGMVKPGGSLRLSCAASGFTFSDYYMSWIRQAPGKGLEWISHISITGSTIYYADSVKGRFTISRDNAKNSLYLEMNRLRDEDTAVYYCTRDEPDIVLVRYGMDVWGQGTTVTVSS
VL: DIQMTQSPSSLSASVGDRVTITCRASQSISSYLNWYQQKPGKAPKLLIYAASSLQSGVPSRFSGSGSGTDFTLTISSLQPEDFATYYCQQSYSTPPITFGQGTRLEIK
notes: H4H prefix: human IgG4 Fc
B3: H4H18462P2 (antibody, human IgG4, V domains shown)
VH: EVQLVESGGDLVQPGRSLRLSCAASGFTFSSFAMSWVRQAPGRGLEWVSSLSDSGDNTYYADSVKGRFTISRDNSKNTLYLQMNNLRAEDTAVYYCAKDLFSGWLFHGFDVWGQGTMVTVSS
VL: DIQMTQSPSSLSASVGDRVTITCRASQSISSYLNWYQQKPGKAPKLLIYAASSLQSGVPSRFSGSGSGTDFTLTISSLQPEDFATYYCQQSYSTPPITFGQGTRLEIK
notes: H4H prefix: human IgG4 Fc
B4: H4H18457P2 (antibody, human IgG4, V domains shown)
VH: EVQLVESGGSVVRPGESLRLSCAASGFTFDDYGMSWVRQAPGKGLEWVSGISWNGGITVYADSVKGRFTVSRDNAKNSLYLQMNSLRAEDTALYHCARARYGGADYWGQGTLVTVSS
VL: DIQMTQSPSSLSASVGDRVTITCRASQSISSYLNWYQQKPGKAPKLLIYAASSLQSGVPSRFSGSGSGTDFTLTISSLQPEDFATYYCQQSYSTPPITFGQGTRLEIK
notes: H4H prefix: human IgG4 Fc

Columns and labels:
[1] = molecular target: T1, full-length human LEPR on …; assay: cell-based or functional assay
[2] = molecular target: T6, recombinant human LEPR extracellular domain expressed with a C-terminal myc-myc-hexahistidine tag (human, UniProt P48357 22-839); assay: Luminex, myc-captured LEPR protein on beads, Ab 0.5 µg/mL
T6 construct: Monomeric construct; also called hLEPR.MMH; hLEPR-MMH
Experimental: (§1) Aliquots of microspheres with immobilized anti-myc monoclonal antibodies, prepared as described above, were added individually to 1 mL of the each of these protein supernatants. The microspheres were gently mixed, incubated for two hours at 25° C., washed twice with 1 mL of DBPS, centrifuged to remove the supernatant and finally resuspended in 1 mL of DPBS buffer. Forty eight μL of anti-myc IgG coupled microspheres from individual reactions with full length human LEPR and with each of the human LEPR domain proteins were withdrawn and mixed together in 3.6 mL of PBS+20 mg/mL BSA+0.05% sodium azide (blocking buffer).
(§2) From this mixed pool, 75 μL of microspheres were plated per well on a 96 well filter plate (Millipore, Cat. No: MSBVN1250) and mixed with 25 μL of individual anti-human LEPR monoclonal antibodies (0.5 or 5 μg/mL), incubated for two hours at 25° C. and then washed twice with 200 μL of DPBS with 0.05% Tween 20 (washing buffer). […] After 30 minutes, the samples were washed twice with 200 μL of washing buffer and resuspended in 150 μL of wash buffer. The Median Fluorescence intensity (MFI) of the microspheres was measured in a Luminex Analyzer.

[3] = molecular target: T2, human LEPR CRH1 (D1)-MMH; assay: as above
Experimental: as §1, §2

[4] = molecular target: T3, human LEPR CRH1-Ig (D2,D3)-MMH; assay: as above
Experimental: as §1, §2

[5] = molecular target: T4, human LEPR Ig (D3)-MMH; assay: as above
Experimental: as §1, §2

[6] = molecular target: T5, human LEPR FNIII-MMH; assay: as above
Experimental: as §1, §2

| Binder | % activation, IMR-32/LEPR without human Leptin [1] [%] | % inhibition, IMR-32/LEPR with 200 pM human Leptin [1] [%] | IC50 (M), IMR-32/LEPR with 200 pM human Leptin [1] [M] | other results |
| --- | --- | --- | --- | --- |
| B1 | 6 | 100 | 2.9e-09 | EC50 (M), IMR-32/LEPR without human Leptin (STAT3-Luc) [1]: 1.3e-10 M |
| B2 | 4 | – | – | – |
| B3 | – | – | – | Luminex MFI [2]: 3610 MFI; Luminex MFI [3]: 615 MFI; Luminex MFI [4]: 25 MFI; Luminex MFI [5]: 10 MFI; Luminex MFI [6]: 229 MFI |
| B4 | – | 100 | 7.23e-10 | – |

Source: patent US20200123264A1 (Regeneron, published 2020)
